Measured values as given in US20150086555A1.
Values joined by “and” are separate entries in the source; they are usually repeats but may differ in a detail not shown here. Identical values can stand only once. Like-named read-outs stand apart in the source and are kept apart here.

How the values were obtained:
Details in all cases: remark: other sources report otherwise
[1] = target: recombinant soluble homotrimeric HA of A/Hong Kong/1073/99 (H9N2) (Influenza A virus A/Hong Kong/1073/99 (H9N2))
[2] = target: T1, recombinant soluble homotrimeric HA of A/Anhui/1/05 (H5N1) (Influenza A virus A/Anhui/1/2005(H5N1))
[3] = target: recombinant soluble homotrimeric HA of A/chicken/Vietnam/NCVD-016/08 (H5N1) (Influenza A virus A/chicken/Vietnam/NCVD-016/2008(H5N1))
[4] = target: T2, recombinant soluble homotrimeric HA of A/Japan/305/57 (H2N2) (Influenza A virus A/Japan/305/1957(H2N2))
[5] = target: T3, recombinant soluble homotrimeric HA of A/Vietnam/1203/04 (H5N1) (Influenza A virus A/VietNam/1203/2004(H5N1))
[6] = target: recombinant soluble homotrimeric HA of A/swine/Ontario/01911-2/99 (H4N6) (Influenza A virus A/Swine/Ontario/01911-2/99 (H4N6))
[7] = target: T4, recombinant soluble homotrimeric HA of A/California/4/09 (H1N1) (Influenza A virus A/California/04/2009(H1N1))
[8] = target: T5, recombinant soluble homotrimeric HA of A/Hong Kong/2108/03 (H9N2) (Influenza A virus A/HK/2108/2003(H9N2))
[9] = target: T6, recombinant soluble homotrimeric HA of A/Netherlands/219/03 (H7N7) (Influenza A virus A/Netherlands/219/03(H7N7))
[10] = target: T7, recombinant soluble homotrimeric HA of A/Solomon Islands/3/06 (H1N1) (Influenza A virus A/Solomon Islands/3/2006(H1N1))
[11] = target: T8, recombinant soluble homotrimeric HA of A/Indonesia/5/05 (H5N1) (Influenza A virus A/Indonesia/5/2005(H5N1))
[12] = target: recombinant soluble homotrimeric HA of A/Hong Kong/156/97 (H5N1) (Influenza A virus A/Hong Kong/156/97 (H5N1))
[13] = target: recombinant soluble homotrimeric HA of A/northern shoveler/California/HKWF115/07 (H6) (Influenza A virus A/northern shoveler/California/HKWF115/2007(H6N1))
[14] = target: T9, recombinant soluble homotrimeric HA of A/Egypt/3300-NAMRU3/08 (H5N1) (Influenza A virus A/Egypt/3300-NAMRU3/2008(H5N1))
[15] = target: T10, recombinant soluble homotrimeric HA of A/duck/Yangzhou/02/05 (H8N4) (Influenza A virus A/duck/Yangzhou/02/2005(H8N4))
[16] = target: recombinant soluble homotrimeric HA of A/South Carolina/1/18 (H1N1) (Influenza A virus A/South Carolina/1/18 (H1N1))
[17] = target: recombinant soluble homotrimeric HA of A/Wisconsin/67/05 (H3N2) (Influenza A virus A/Wisconsin/67/2005(H3N2)); assay: HA microarray, BCC supernatant
[18] = target: T1, recombinant soluble homotrimeric HA of …; assay: HA microarray, BCC supernatant
[19] = target: T2, recombinant soluble homotrimeric HA of …; assay: HA microarray, BCC supernatant
[20] = target: T3, recombinant soluble homotrimeric HA of …; assay: HA microarray, BCC supernatant
[21] = target: T4, recombinant soluble homotrimeric HA of …; assay: HA microarray, BCC supernatant
[22] = target: T5, recombinant soluble homotrimeric HA of …; assay: HA microarray, BCC supernatant
[23] = target: T6, recombinant soluble homotrimeric HA of …; assay: HA microarray, BCC supernatant
[24] = target: T7, recombinant soluble homotrimeric HA of …; assay: HA microarray, BCC supernatant
[25] = target: T8, recombinant soluble homotrimeric HA of …; assay: HA microarray, BCC supernatant
[26] = target: T9, recombinant soluble homotrimeric HA of …; assay: HA microarray, BCC supernatant
[27] = target: T10, recombinant soluble homotrimeric HA of …; assay: HA microarray, BCC supernatant
[28] = target: recombinant homotrimeric HA A/South Carolina/1/18 H1N1 (Influenza A virus A/South Carolina/1/18 (H1N1)); assay: protein microarray, purified IgG, trimeric HA
[29] = target: recombinant homotrimeric HA A/Netherlands/219/03 H7N7 (Influenza A virus A/Netherlands/219/03(H7N7)); assay: protein microarray, purified IgG, trimeric HA
[30] = target: recombinant homotrimeric HA A/Anhui/1/05 H5N1 (Influenza A virus A/Anhui/1/2005(H5N1)); assay: protein microarray, purified IgG, trimeric HA
[31] = target: recombinant homotrimeric HA A/Vietnam/1203/04 H5N1 (Influenza A virus A/VietNam/1203/2004(H5N1)); assay: protein microarray, purified IgG, trimeric HA
[32] = target: recombinant homotrimeric HA A/Egypt/3300-NAMRU3/08 H5N1 (Influenza A virus A/Egypt/3300-NAMRU3/2008(H5N1)); assay: protein microarray, purified IgG, trimeric HA
[33] = target: recombinant homotrimeric HA A/Indonesia/5/05 H5N1 (Influenza A virus A/Indonesia/5/2005(H5N1)); assay: protein microarray, purified IgG, trimeric HA
[34] = target: recombinant homotrimeric HA A/Hong Kong/156/97 H5N1 (Influenza A virus A/Hong Kong/156/97 (H5N1)); assay: protein microarray, purified IgG, trimeric HA
[35] = target: recombinant homotrimeric HA A/Solomon Islands/3/06 H1N1 (Influenza A virus A/Solomon Islands/3/2006(H1N1)); assay: protein microarray, purified IgG, trimeric HA
[36] = target: recombinant homotrimeric HA A/California/4/09 H1N1 (Influenza A virus A/California/04/2009(H1N1)); assay: protein microarray, purified IgG, trimeric HA
[37] = target: recombinant homotrimeric HA A/Japan/305/57 H2N2 (Influenza A virus A/Japan/305/1957(H2N2)); assay: protein microarray, purified IgG, trimeric HA
[38] = target: hemagglutinin (HA) of influenza A/Japan/305/57 (H2N2) on whole virions (Influenza A virus A/Japan/305/1957(H2N2)), P03451; assay: ELISA; BCC supernatant on coated inactivated whole virions
[39] = target: recombinant soluble homotrimeric HA, A/Japan/305/57 H2N2 (Influenza A virus A/Japan/305/1957(H2N2)); assay: microarray, transfection SN IgG, trimeric HA
[40] = target: recombinant soluble homotrimeric HA, A/California/4/09 H1N1 (Influenza A virus A/California/04/2009(H1N1)); assay: microarray, transfection SN IgG, trimeric HA
[41] = target: recombinant soluble homotrimeric HA, A/Vietnam/1203/04 H5N1 (Influenza A virus A/VietNam/1203/2004(H5N1)); assay: microarray, transfection SN IgG, trimeric HA
[42] = target: recombinant soluble homotrimeric HA, A/Anhui/1/05 H5N1 (Influenza A virus A/Anhui/1/2005(H5N1)); assay: microarray, transfection SN IgG, trimeric HA
[43] = target: recombinant soluble homotrimeric HA, A/South Carolina/1/18 H1N1 (Influenza A virus A/South Carolina/1/18 (H1N1)); assay: microarray, transfection SN IgG, trimeric HA
[44] = target: recombinant soluble homotrimeric HA, A/Solomon Islands/3/06 H1N1 (Influenza A virus A/Solomon Islands/3/2006(H1N1)); assay: microarray, transfection SN IgG, trimeric HA
[45] = target: recombinant soluble homotrimeric HA, A/Hong Kong/156/97 H5N1 (Influenza A virus A/Hong Kong/156/97 (H5N1)); assay: microarray, transfection SN IgG, trimeric HA
[46] = target: recombinant soluble homotrimeric HA of H1N1 A/California/04/09 (Influenza A virus A/California/04/2009(H1N1)); assay: ProteOn biosensor, HA-CA captured on anti-V5 surface, Fab in solution

B1: TCN-564 (5256_A17b) (antibody, V domains shown)
VH: QVQLVQSGADVKKPGSSVTVSCKASGGSFSNYGINWVRQAPGQGLEWMGGIIPLINAPNYAPKFQGRVTITADMFSNIVSLQLTSLRTDDTAVYYCARRKMTTAIDYWGQGTLVTVSS
VL: QPVLSQPPSASASLGASVTLTCTLSSGFDNYQVAWYQQRPGKGPRFVMRVGNGGNVASKGDGIPDRFSVSGSGLNRYLTIKNIQEDDESDYYCGADHGSGNNFVSPYVFGGGTKLTVL
Work on B1 yielded a Trimeric HA Binding: RLU [1] of 9470 RLU, a Trimeric HA Binding: RLU [2] of 4260 RLU and a Trimeric HA Binding: RLU [3] of 5860 RLU. For the same binder, the Trimeric HA Binding: RLU [4] was 20200 RLU, the Trimeric HA Binding: RLU [5] was 25400 RLU and the Trimeric HA Binding: RLU [6] was 251 RLU. It also gave a Trimeric HA Binding: RLU [7] of 27500 RLU, a Trimeric HA Binding: RLU [8] of 272 RLU and a Trimeric HA Binding: RLU [9] of 1410 RLU. The Trimeric HA Binding: RLU [10] was 8570 RLU, the Trimeric HA Binding: RLU [11] was 26300 RLU and the Trimeric HA Binding: RLU [12] was 18100 RLU. For the same binder, the Trimeric HA Binding: RLU [13] was 16000 RLU, the Trimeric HA Binding: RLU [14] was 19900 RLU and the Trimeric HA Binding: RLU [15] was 369 RLU. For the same binder, the Trimeric HA Binding: RLU [16] was 15100 RLU.

B2: TCN-551 (5243_D01) (antibody, V domains shown)
VH: EVQLVQSGSEVKKPGESLKISCKGSGYSFSNYWIGWVRHMPGKGLEWMGIIYPGDSDTRYSPSFQGQVTMSADKSSSTVYLQWSSLKASDTAIYYCARRGGHSFGYGSGGDTHSEFDSWGQGTLVTVSS
VL: QSVLTQSPSVSAAPGQKVTISCSGSDSNIGDYFVCWYQHLPGKPPQLLIYENNKRPSGIPDRFSGSKSGTSATLGITGIQTGDEADYYCATWDGSLSAWVFGGGTKLTVL
With B2 the Trimeric HA Binding: RLU [17] was 6840 RLU, the Trimeric HA Binding: RLU [18] was 4190 RLU and the Trimeric HA Binding: RLU [19] was 22600 RLU. It also gave a Trimeric HA Binding: RLU [20] of 4150 RLU, a Trimeric HA Binding: RLU [21] of 53400 RLU and a Trimeric HA Binding: RLU [22] of 224 RLU. It also gave a Trimeric HA Binding: RLU [23] of 786 RLU, a Trimeric HA Binding: RLU [24] of 53800 RLU and a Trimeric HA Binding: RLU [25] of 53500 RLU. The Trimeric HA Binding: RLU [26] was 47200 RLU, the Trimeric HA Binding: RLU [27] was 9820 RLU and the Trimeric HA Binding: RLU [28] was 10300 RLU. The Trimeric HA Binding: RLU [29] was 1670 RLU, the Trimeric HA Binding: RLU [30] was 6640 RLU and the Trimeric HA Binding: RLU [31] was 2950 RLU. It also gave a Trimeric HA Binding: RLU [32] of 907 RLU, a Trimeric HA Binding: RLU [33] of 296 RLU and a Trimeric HA Binding: RLU [34] of 824 RLU. For the same binder, the Trimeric HA Binding: RLU [35] was 25000 RLU, the Trimeric HA Binding: RLU [36] was 19400 RLU and the Trimeric HA Binding: RLU [37] was 1600 RLU. For the same binder, the ELISA virus binding (OD450) [38] was 0.19 OD450, the Trimeric HA Binding: RLU [39] was 25200 RLU and the Trimeric HA Binding: RLU [40] was 46100 RLU. The Trimeric HA Binding: RLU [41] was 41900 RLU, the Trimeric HA Binding: RLU [42] was 2640 RLU and the Trimeric HA Binding: RLU [43] was 4340 RLU. For the same binder, the Trimeric HA Binding: RLU [44] was 43500 RLU and the Trimeric HA Binding: RLU [45] was 792 RLU.

B3: Fab fragment of TCN-522 (Fab, V domains shown)
VH: QVQLQQWGAGLLKPSETLSLTCTVSGGSLTDYSWNWIRQPPGKGLEWIGDTLHNGYTNYNPSLRGRVSISIDTSKNQVSLRLTSVTAADTALYYCARGSGGYGGFDYFGKLRTWDFWGQGTLVTVSS
VL: DIQLTQSPSSLSASVGDRVTITCRASQGIRNDLGWYQQKPGNAPKRLIFGASSLQSGVPSRFSGSGSGTEFTLTISSLQPEDFATYYCLQHNSYPYTFGQGTKLEIK
B3 was tested, and the fold slower on-rate (ka) than the other Fabs [46] was 5 fold and 8 fold.
